Key:
[1] = system: HeLa Kyoto; test: solubility in G1/S (NP-40 vs SDS abundance) (log2 ratio); higher = more soluble; details: cell cycle stage: G1/S
[2] = system: HeLa Kyoto; test: thermal stability score vs G1/S (z-score of summed log2 fold changes over temperatures); higher = more thermally stable than in G1/S
[3] = system: HeLa Kyoto; test: solubility change mitosis vs G1/S (difference of NP-40 vs SDS log2 ratios) (log2 ratio difference); higher = more soluble in mitosis
[4] = system: HeLa Kyoto; test: melting temperature (median over replicates), in situ; higher = more thermally stable
[5] = cell cycle stage: early G1 (4.5 h after nocodazole release)
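Wherever melting temperature (median over replicates), in situ is given: HeLa Kyoto cells synchronized by double thymidine or nocodazole block, proteins quantified by TMT10plex mass spectrometry, three independent biological replicates.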
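Wherever solubility change mitosis vs G1/S (difference of NP-40 vs SDS log2 ratios) is given: synchronized HeLa Kyoto cells (double thymidine block for G1/S, nocodazole release for mitosis), protein amounts in NP-40 versus SDS lysates quantified by mass spectrometry, three biological replicates.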
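Wherever solubility in G1/S (NP-40 vs SDS abundance) is given: HeLa Kyoto cells arrested at G1/S by double thymidine block, proteins quantified by TMT10plex mass spectrometry in mild NP-40 versus SDS extracts, three biological replicates.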
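Wherever thermal stability score vs G1/S (z-score of summed log2 fold changes over temperatures) is given: synchronized HeLa Kyoto cells, proteins quantified by TMT10plex mass spectrometry, three biological replicates, mitosis taken 0.5 h after nocodazole release, G1/S directly after double thymidine block.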

Chain of EMC10 (chain, as listed by the source): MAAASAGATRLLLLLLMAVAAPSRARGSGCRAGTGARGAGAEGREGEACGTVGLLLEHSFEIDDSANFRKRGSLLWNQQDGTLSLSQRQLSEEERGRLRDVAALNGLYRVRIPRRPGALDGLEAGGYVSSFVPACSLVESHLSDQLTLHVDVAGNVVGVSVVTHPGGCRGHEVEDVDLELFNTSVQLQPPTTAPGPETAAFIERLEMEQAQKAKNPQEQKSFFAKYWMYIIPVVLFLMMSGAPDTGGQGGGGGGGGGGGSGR

Substance	solubility in G1/S (log2) [1]	thermal stability score [2, 5]	thermal stability score ([2]; cell cycle stage: mitosis)	solubility change mitosis (log2) [3]	melting temperature ([4]; cell cycle stage: G1/S) [°C]	melting temperature ([4]; cell cycle stage: mitosis) [°C]
MALHVPKAPGFAQMLKEGAKHFSGLEEAVYRNIQACKELAQTTRTAYGPNGMNKMVINHLEKLFVTNDAATILRELEVQHPAAKMIVMASHMQEQEVGDGTNFVLVFAGALLELAEELLRIGLSVSEVIEGYEIACRKAHEILPNLVCCSAKNLRDIDEVSSLLRTSIMSKQYGNEVFLAKLIAQACVSIFPDSGHFNVDNIRVCKILGSGISSSSVLHGMVFKKETEGDVTSVKDAKIAVYSCPFDGMITETKGTVLIKTAEELMNFSKGEENLMDAQVKAIADTGANVVVTGGKVADMALHYANKYNIMLVRLNSKWDLRRLCKTVGATALPRLTPPVLEEMGHCDSVYLSEVGDTQVVVFKHEKEDGAISTIVLRGSTDNLMDDIERAVDDGVNTFKVLTRDKRLVPGGGATEIELAKQITSYGETCPGLEQYAIKKFAEAFEAIPRALAENSGVKANEVISKLYAVHQEGNKNVGLDIEAEVPAVKDMLEAGILDTYLGKYWAIKLATNAAVTVLRVDQIIMAKPAGGPKPPSGKKDWDDDQND [CCT8]	0.0969	-0.228	-1.4	-0.0769	54.2	53.9
ZCCHC11	-0.0583	0.72	1.31	-0.11	50.6	49.4
MENSQLCKLFIGGLNVQTSESGLRGHFEAFGTLTDCVVVVNPQTKRSRCFGFVTYSNVEEADAAMAASPHAVDGNTVELKRAVSREDSARPGAHAKVKKLFVGGLKGDVAEGDLIEHFSQFGTVEKAEIIADKQSGKKRGFGFVYFQNHDAADKAAVVKFHPIQGHRVEVKKAVPKEDIYSGGGGGGSRSSRGGRGGRGRGGGRDQNGLSKGGGGGYNSYGGYGGGGGGGYNAYGGGGGGSSYGGSDYGNGFGGFGSYSQHQSSYGPMKSGGGGGGGGSSWGGRSNSGPYRGGYGGGGGYGGSSF [HNRNPA0]	-0.218	3.72	12.8	0.24	45.2	47
MGDSDDEYDRRRRDKFRRERSDYDRSRERDERRRGDDWNDREWDRGRERRSRGEYRDYDRNRRERFSPPRHELSPPQKRMRRDWDEHSSDPYHSGYEMPYAGGGGGPTYGPPQPWGHPDVHIMQHHVLPIQARLGSIAEIDLGVPPPVMKTFKEFLLSLDDSVDETEAVKRYNDYKLDFRRQQMQDFFLAHKDEEWFRSKYHPDEVGKRRQEARGALQNRLRVFLSLMETGWFDNLLLDIDKADAIVKMLDAAVIKMEGGTENDLRILEQEEEEEQAGKPGEPSKKEEGRAGAGLGDGERKTNDKDEKKEDGKQAENDSSNDDKTKKSEGDGDKEEKKEDSEKEAKKSSKKRNRKHSGDDSFDEGSVSESESESESGQAEEEKEEAEEALKEKEKPKEEEWEKPKDAAGLECKPRPLHKTCSLFMRNIAPNISRAEIISLCKRYPGFMRVALSEPQPERRFFRRGWVTFDRSVNIKEICWNLQNIRLRECELSPGVNRDLTRRVRNINGITQHKQIVRNDIKLAAKLIHTLDDRTQLWASEPGTPPLPTSLPSQNPILKNITDYLIEEVSAEEEELLGSSGGAPPEEPPKEGNPAEINVERDEKLIKVLDKLLLYLRIVHSLDYYNTCEYPNEDEMPNRCGIIHVRGPMPPNRISHGEVLEWQKTFEEKLTPLLSVRESLSEEEAQKMGRKDPEQEVEKFVTSNTQELGKDKWLCPLSGKKFKGPEFVRKHIFNKHAEKIEEVKKEVAFFNNFLTDAKRPALPEIKPAQPPGPAQILPPGLTPGLPYPHQTPQGLMPYGQPRPPILGYGAGAVRPAVPTGGPPYPHAPYGAGRGNYDAFRGQGGYPGKPRNRMVRGDPRAIVEYRDLDAPDDVDFF [SRRT]	-0.305	2.79	6.86	0.214	48.2	49.1
MSDTAVADTRRLNSKPQDLTDAYGPPSNFLEIDIFNPQTVGVGRARFTTYEVRMRTNLPIFKLKESCVRRRYSDFEWLKNELERDSKIVVPPLPGKALKRQLPFRGDEGIFEESFIEERRQGLEQFINKIAGHPLAQNERCLHMFLQEEAIDRNYVPGKVRQ [SNX12]	0.348	-0.501	-1.12	0.12	49.2	50.7
MTDGILGKAATMEIPIHGNGEARQLPEDDGLEQDLQQVMVSGPNLNETSIVSGGYGGSGDGLIPTGSGRHPSHSTTPSGPGDEVARGIAGEKFDIVKKWGINTYKCTKQLLSERFGRGSRTVDLELELQIELLRETKRKYESVLQLGRALTAHLYSLLQTQHALGDAFADLSQKSPELQEEFGYNAETQKLLCKNGETLLGAVNFFVSSINTLVTKTMEDTLMTVKQYEAARLEYDAYRTDLEELSLGPRDAGTRGRLESAQATFQAHRDKYEKLRGDVAIKLKFLEENKIKVMHKQLLLFHNAVSAYFAGNQKQLEQTLQQFNIKLRPPGAEKPSWLEEQ [ARFIP2]	0.602	-0.945	-2.87	0.0365	51.1	50.9
EMC10	0.514	1.37	0.155	-0.339	52.2	54.1
MAAMAPGGSGSGGGVNPFLSDSDEDDDEVAATEERRAVLRLGAGSGLDPGSAGSLSPQDPVALGSSARPGLPGEASAAAVALGGTGETPARLSIDAIAAQLLRDQYLLTALELHTELLESGRELPRLRDYFSNPGNFERQSGTPPGMGAPGVPGAAGVGGAGGREPSTASGGGQLNRAGSISTLDSLDFARYSDDGNRETDEKVAVLEFELRKAKETIQALRANLTKAAEHEVPLQERKNYKSSPEIQEPIKPLEKRALNFLVNEFLLKNNYKLTSITFSDENDDQDFELWDDVGLNIPKPPDLLQLYRDFGNHQVTGKDLVDVASGVEEDELEALTPIISNLPPTLETPQPAENSMLVQKLEDKISLLNSEKWSLMEQIRRLKSEMDFLKNEHFAIPAVCDSVQPPLDQLPHKDSEDSGQHPDVNSSDKGKNTDIHLSISDEADSTIPKENSPNSFPRREREGMPPSSLSSKKTVHFDKPNRKLSPAFHQALLSFCRMSADSRLGYEVSRIADSEKSVMLMLGRCLPHIVPNVLLAKREELIPLILCTACLHPEPKERDQLLHILFNLIKRPDDEQRQMILTGCVAFARHVGPTRVEAELLPQCWEQINHKYPERRLLVAESCGALAPYLPKEIRSSLVLSMLQQMLMEDKADLVREAVIKSLGIIMGYIDDPDKYHQGFELLLSALGDPSERVVSATHQVFLPAYAAWTTELGNLQSHLILTLLNKIEKLLREGEHGLDEHKLHMYLSALQSLIPSLFALVLQNAPFSSKAKLHGEVPQIEVTRFPRPMSPLQDVSTIIGSREQLAVLLQLYDYQLEQEGTTGWESLLWVVNQLLPQLIEIVGKINVTSTACVHEFSRFFWRLCRTFGKIFTNTKVKPQFQEILRLSEENIDSSAGNGVLTKATVPIYATGVLTCYIQEEDRKLLVGFLEDVMTLLSLSHAPLDSLKASFVELGANPAYHELLLTVLWYGVVHTSALVRCTAARMFELTLRGMSEALVDKRVAPALVTLSSDPEFSVRIATIPAFGTIMETVIQRELLERVKMQLASFLEDPQYQDQHSLHTEIIKTFGRVGPNAEPRFRDEFVIPHLHKLALVNNLQIVDSKRLDIATHLFEAYSALSCCFISEDLMVNHFLPGLRCLRTDMEHLSPEHEVILSSMIKECEQKVENKTVQEPQGSMSIAASLVSEDTKTKFLNKMGQLTTSGAMLANVFQRKK [KIAA1468]	-0.0233	-0.253	-0.932	-0.171	50.8	51.1
MSGQSLTDRITAAQHSVTGSAVSKTVCKATTHEIMGPKKKHLDYLIQCTNEMNVNIPQLADSLFERTTNSSWVVVFKSLITTHHLMVYGNERFIQYLASRNTLFNLSNFLDKSGLQGYDMSTFIRRYSRYLNEKAVSYRQVAFDFTKVKRGADGVMRTMNTEKLLKTVPIIQNQMDALLDFNVNSNELTNGVINAAFMLLFKDAIRLFAAYNEGIINLLEKYFDMKKNQCKEGLDIYKKFLTRMTRISEFLKVAEQVGIDRGDIPDLSQAPSSLLDALEQHLASLEGKKIKDSTAASRATTLSNAVSSLASTGLSLTKVDEREKQAALEEEQARLKALKEQRLKELAKKPHTSLTTAASPVSTSAGGIMTAPAIDIFSTPSSSNSTSKLPNDLLDLQQPTFHPSVHPMSTASQVASTWGDPFSATVDAVDDAIPSLNPFLTKSSGDVHLSISSDVSTFTTRTPTHEMFVGFTPSPVAQPHPSAGLNVDFESVFGNKSTNVIVDSGGFDELGGLLKPTVASQNQNLPVAKLPPSKLVSDDLDSSLANLVGNLGIGNGTTKNDVNWSQPGEKKLTGGSNWQPKVAPTTAWNAATMAPPVMAYPATTPTGMIGYGIPPQMGSVPVMTQPTLIYSQPVMRPPNPFGPVSGAQIQFM [PICALM]	0.0523	-1.28	-1.63	-0.0327	53.7	53.1
MAATSLMSALAARLLQPAHSCSLRLRPFHLAAVRNEAVVISGRKLAQQIKQEVRQEVEEWVASGNKRPHLSVILVGENPASHSYVLNKTRAAAVVGINSETIMKPASISEEELLNLINKLNNDDNVDGLLVQLPLPEHIDERRICNAVSPDKDVDGFHVINVGRMCLDQYSMLPATPWGVWEIIKRTGIPTLGKNVVVAGRSKNVGMPIAMLLHTDGAHERPGGDATVTISHRYTPKEQLKKHTILADIVISAAGIPNLITADMIKEGAAVIDVGINRVHDPVTAKPKLVGDVDFEGVRQKAGYITPVPGGVGPMTVAMLMKNTIIAAKKVLRLEEREVLKSKELGVATN [MTHFD2]	0.505	0.31	-0.889	-0.0584	52.5	53.3
NFIA	-0.00202	0.325	1.68	0.0442	59	62.1
MERKISRIHLVSEPSITHFLQVSWEKTLESGFVITLTDGHSAWTGTVSESEISQEADDMAMEKGKYVGELRKALLSGAGPADVYTFNFSKESCYFFFEKNLKDVSFRLGSFNLEKVENPAEVIRELICYCLDTIAENQAKNEHLQKENERLLRDWNDVQGRFEKCVSAKEALETDLYKRFILVLNEKKTKIRSLHNKLLNAAQEREKDIKQEGETAICSEMTADRDPVYDESTDEESENQTDLSGLASAAVSKDDSIISSLDVTDIAPSRKRRQRMQRNLGTEPKMAPQENQLQEKENSRPDSSLPETSKKEHISAENMSLETLRNSSPEDLFDEI [XRCC4]	0.0124	-0.551	-0.497	-0.0112	55.2	54.7
MAAVSGLVRRPLREVSGLLKRRFHWTAPAALQVTVRDAINQGMDEELERDEKVFLLGEEVAQYDGAYKVSRGLWKKYGDKRIIDTPISEMGFAGIAVGAAMAGLRPICEFMTFNFSMQAIDQVINSAAKTYYMSGGLQPVPIVFRGPNGASAGVAAQHSQCFAAWYGHCPGLKVVSPWNSEDAKGLIKSAIRDNNPVVVLENELMYGVPFEFPPEAQSKDFLIPIGKAKIERQGTHITVVSHSRPVGHCLEAAAVLSKEGVECEVINMRTIRPMDMETIEASVMKTNHLVTVEGGWPQFGVGAEICARIMEGPAFNFLDAPAVRVTGADVPMPYAKILEDNSIPQVKDIIFAIKKTLNI [PDHB]	0.196	-1.24	-2.38	-0.117	51.7	51.4
MASEDIAKLAETLAKTQVAGGQLSFKGKSLKLNTAEDAKDVIKEIEDFDSLEALRLEGNTVGVEAARVIAKALEKKSELKRCHWSDMFTGRLRTEIPPALISLGEGLITAGAQLVELDLSDNAFGPDGVQGFEALLKSSACFTLQELKLNNCGMGIGGGKILAAALTECHRKSSAQGKPLALKVFVAGRNRLENDGATALAEAFRVIGTLEEVHMPQNGINHPGITALAQAFAVNPLLRVINLNDNTFTEKGAVAMAETLKTLRQVEVINFGDCLVRSKGAVAIADAIRGGLPKLKELNLSFCEIKRDAALAVAEAMADKAELEKLDLNGNTLGEEGCEQLQEVLEGFNMAKVLASLSDDEDEEEEEEGEEEEEEAEEEEEEDEEEEEEEEEEEEEEPQQRGQGEKSATPSRKILDPNTGEPAPVLSSPPPADVSTFLAFPSPEKLLRLGPKSSVLIAQQTDTSDPEKVVSAFLKVSSVFKDEATVRMAVQDAVDALMQKAFNSSSFNSNTFLTRLLVHMGLLKSEDKVKAIANLYGPLMALNHMVQQDYFPKALAPLLLAFVTKPNSALESCSFARHSLLQTLYKV [RANGAP1]	0.166	0.55	2.63	0.199	48.6	49

— the supplement of paper PMC5998384
